# Reference: the nanobody polyreactivity screen of Harvey et al. (2022)
# Assay: yeast display, Sf9 membrane polyspecificity reagent, FACS + sequencing; frameworks hold sequencing errors
# How it was run: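 Nanobodies came from a synthetic yeast display library in Saccharomyces cerevisiae BJ5465, induced with galactose for 36–48 hours and stained for 1 hour at 4 °C with 10% biotinylated, detergent-solubilized Sf9 membrane reagent. Cells were enriched on streptavidin microbeads and then FACS-sorted, with low and high (top ~1%) gates set on anti-HA fluorescence for expression and streptavidin fluorescence for reagent binding. Each polyreactivity label reflects the gate a clone came from. Genes were amplified by colony PCR, sequenced by MiSeq 2 × 250 and filtered by CDR length.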
row,Sequence,polyreactivity (PSR sort gate)
1,QVQLVESGGGLVQAGGSLRLSCAASGSIFQWNAMGWYRQAPGKERELVAAISTRGGRTYYADSVKGRFTISRDNAKNTVYLQMNSLKPEDTAVYYCAKQYGSYGRYYKYYYWGQGTQVTVSS,high polyreactivity
2,QVQLVESGGGLVQAGGSLRLSCAASGSIFQWYAMGWYRQAPGKERELVAAINWSSGSTYYADSVKGRFTISRDIAKNTVYLQMNSLKPEETAVYYCAARIGYGTSYLRRIYYWGQGTQVTVSS,high polyreactivity
3,QVQLVESGGGLVQAGGSLRLSCAASGSIFQYNAMGWSRQAPGKERELVAAIRTNYADSVKGRFTISRDNAKNTVYLQMNSLKPEDTAVYYCAAESSQTPTSAFDYWGQGTQVTVSS,low polyreactivity
4,QVQLVESGGGLVQAGGSLRLSCAASGSIFQYNAMGWYRQAPGKERELVAVISRSGSRTYYADSVKGRFTISRDNAKNTVYLQMNSLKPEDTAVYYCAAPFTSIGARDYYYWGQGTQVTVSS,high polyreactivity
5,QVQLVESGGGLVQAGGSLRLSCAASGSIFQYYGMGWYRPAPGKERELVAAITWNGGSTYADSVKGRFTISRDNAKNTVYLQMNSLKPEDTAVYYCAADLLVRWWLDYDYWGQGTQVTVSS,low polyreactivity
6,QVQLVESGGGLVQAGGSLRLSCAASGSIFQYYGMVWYRQAPGKERELVASISRSGGSTYYADSVKGRFTISRDNAKNTVYLQMNSLKPEDTAVYYCNAKEPIRRTHLTSTYRDGYWGQGTQVTVSS,low polyreactivity
7,QVQLVESGGGLVQAGGSLRLSCAASGSIFQYYLIGWYRKAPGKERELVAAIRRSGTTYYADSVKGRFTISRDNAKNTVYLQMNSLKPEDTAVYYCNKVRGQEQSNYDYWGQGTQVTVSS,low polyreactivity
8,QVQLVESGGGLVQAGGSLRLSCAASGSIFQYYVMGWYRQAPGKERELDAAIRRSGTTYYADSVKGRFTISRDNAKNTVYLQMNSLKPEDTAVYYCNADSIYYYYLIEYEYWGQGSQVTVSS,low polyreactivity
9,QVQLVESGGGLVQAGGSLRLSCAASGSIFQYYVMGWYRQAPGKERELVAAISQSGGRTYYADSVKGRFTISRDNAKNTVYLQMNSLKPEDTAVYYCAADSRNAEYDYWGQGTQVTVSS,high polyreactivity
10,QVQLVESGGGLVQAGGSLRLSCAASGSIFRAYAMGWYRQAPGKERELVAAINWTDGSTYYADSVKGRFTISRDKAKNTVYLQMNSLKPEDTAVYYCAKDSIARHNYWGQGTQVTVSS,low polyreactivity
11,QVQLVESGGGLVQAGGSLRLSCAASGSIFRAYAMGWYRQAPGKERELVAGITKSGGSTYYADSVKGRFTISRDNAKNTVYLQMNSLKAEDTAVYYCAAYRSRTYGYWGQGTQVTVSS,high polyreactivity
12,QVQLVESGGGLVQAGGSLRLSCAASGSIFRAYVMGWYRQAPGKERELVAAISRGGSTNYADSVKGRFTISRDNAKNTVYLQMNSLKPEDSAVYYCAADWYFYSMYDEVEYWGQGTQVTVSS,low polyreactivity
13,QVQLVESGGGLVQAGGSLRLSCAASGSIFRDNAMGWYLQAPGKERELVASISRRGGSTYYADSVKGRFTISRDNAKNTVYLQMNSLKPEDTAVYYCAARAVGGTVPTRYDYWGQGTQVTVSS,high polyreactivity
14,QVQLVESGGGLVQAGGSLRLSCAASGSIFRDYAMGWYRPAPGKERELVAAISSGVSTNYADSVKGRFSISRDNAKNSVYLKMNSLIPEDTAVYYCNTDKYSESFRSYEYWGQGTQVTVSS,low polyreactivity
15,QVQLVESGGGLVQAGGSLRLSCAASGSIFRFKAMGWYRQAPGKERELVAAISWSGGRTYYADSVKGRFTISRDNAKNTVYLQMNSLKPEDTAVYYCAARRSGLKVSPNFGYWGQGTQVTVSS,high polyreactivity
16,QVQLVESGGGLVQAGGSLRLSCAASGSIFRFNTMGWYRQAPGKERELVAAITSGDGTYYADSVKGRFTISRDNAKNTVYLQMNSLKPEDTAVYYCAATRTYQLYRWAPRYYYWGQGTQVTVSS,high polyreactivity
17,QVQLVESGGGLVQAGGSLRLSCAASGSIFRGNALGWYRQAPGKERELFAAISKSGGSTYYADSVKGRFTISRDNAKNTVDLEMNSLKPEDTAVYYCAARTTYLYGMYYWGQGTQVTVSS,low polyreactivity
18,QVQLVESGGGLVQAGGSLRLSCAASGSIFRGNAMGWYRQAPGKERELVAAISSRGGSTYYADSVKGRFTISRDNAKNTVYLQMNSLKPEDTAVYYCGAVRYKYWGVQRSYSWGQGTKVTVSS,high polyreactivity
19,QVQLVESGGGLVQAGGSLRLSCAASGSIFRGNAMGWYRQAPGKERELVASISKGGGSTDYADSVKGRFIISRDNAKNTVYLQMNSLKPEDNAVYYCNKDYDRPDYYYWGQGTQVTVSS,low polyreactivity
20,QVQLVESGGGLVQAGGSLRLSCAASGSIFRGNAMGWYRQAPVKERELVAGINRAGSTKYADSVKGRFTISRDNAKNTVYLQMNSLKPEDTAVYYCAAVRYERGLWSDYWGQGTQVTVSS,high polyreactivity
21,QVQLVESGGGLVQAGGSLRLSCAASGSIFRGYAMGWYRQAPEKERELVAAMSRRGGSTYYADSVKGRFTISRDNAKNTVYLQMNSLKPEDTAVYYCAADWLSWFHGYGMYYWGQGTQVTVSS,low polyreactivity

row,Sequence,polyreactivity (PSR sort gate)
1,QVQLVESGGGLVQAGGSLRLSCAASGSIFRGYAMGWYRQAPGKERELVAAINSSGGRTYYADSVKGRFTISRDNAKKTVYLQMNSLKPEDTAVYYCNARSKYPSYFSSMGYWGQGTQVTVSS,high polyreactivity
2,QVQLVESGGGLVQAGGSLRLSCAASGSIFRGYAMGWYRQAPGKERELVATIDSSAGSTYYADSVKGRFTISRDNAKNTVYLQMNSLIPEDTAVYYCATDPYGYYYSGFDNWGQGTQVTVSS,low polyreactivity
3,QVQLVESGGGLVQAGGSLRLSCAASGSIFRGYTMGWYRQAPGKERELVAAISRSGGSTYYADSVKGRFTISRDNAKNTVYLQMNSLKPEDTAVYYCNVVYFVTTSPGYDYWGQGTQVTVSS,high polyreactivity
4,QVQLVESGGGLVQAGGSLRLSCAASGSIFRGYTMGWYRQAPGKERELVAAISTRGGSTYYADSVKGRFTISRDNAKNTVYLQMNSLKPEDTAVYYCNARSRGRASGYDYWGQGTQVTVSS,high polyreactivity
5,QVQLVESGGGLVQAGGSLRLSCAASGSIFRINGMGCYRQAPGKERELVADITGGGSTYYADSVKGRFTISRDNAKNTVYLHMNSLKPEDTAVYYCAKDYYRSYGREDYWGQGTQVTVSS,low polyreactivity
6,QVQLVESGGGLVQAGGSLRLSCAASGSIFRINVMGWYRQAPGKERELVAAISYSGGRTYYADSVKGRFTISRDNAKKTVYLQMNSLKPEDTAVYYCAATRSNFIYDYWGQGTQVTVSS,high polyreactivity
7,QVQLVESGGGLVQAGGSLRLSCAASGSIFRIYAMGWYRQAPGKERELVAAISFSTGSRTYYADSVKGRFTISRDNAKNTVYLQMNSLKPEDTAVYYCAAEYHPRVLYPNWYDYWGQGTQVTVSS,low polyreactivity
8,QVQLVESGGGLVQAGGSLRLSCAASGSIFRIYAMGWYRQAPGQESELVAAINAGGGRTYYADSVKGRFTISRDNAKNTVYLQMNSLKPEDTAVYYCAARHTEYRQESLYYWGQGTQVTVSS,low polyreactivity
9,QVQLVESGGGLVQAGGSLRLSCAASGSIFRLNAMGWYRQARGKERELVARIDSSGSTNYTDSVKGRFTISRDNAKNTVYLQMNSLKPEDTAVYYCAAGLVLIVGMDSWGQGTQVTVSS,low polyreactivity
10,QVQLVESGGGLVQAGGSLRLSCAASGSIFRLNTMGWYRQAPGKEMEFVAAISKGGTSTYYADSVKARFTISRDNAKNTVYLQMNSLKPEDTAVYYCAADYYSLYEATTDFDYWGQGTQVTVSS,high polyreactivity
11,QVQLVESGGGLVQAGGSLRLSCAASGSIFRLYAMGWYRQAPGKEREFVARIRWRGGCTNYADSVKGRITISRDNAKNTVYLQMNTLKPEDTAVYYCAVKGAGGPKYDYWGHGTQVTVSS,high polyreactivity
12,QVQLVESGGGLVQAGGSLRLSCAASGSIFRLYAMGWYRQAPGKERELVAAITWRSGSTYYADSVKGRFTISRDNAKNTVYLQMNSLKPEDTAVYYCAADSLYRLYNYWGQGTQVTVSS,high polyreactivity
13,QVQLVESGGGLVQAGGSLRLSCAASGSIFRPYAMGWYRQAPGKERELVAAISYRGGSTYYADSVKGRFTISRDYAKNTVYLLMNRLKPEDTAVYYCAADSREEGDYWGQGTQVTVSS,low polyreactivity
14,QVQLVESGGGLVQAGGSLRLSCAASGSIFRPYTMGWYRPAPGKERELVAGITSGGGTYYADSVKGRFTISRDNAKNTVYLQMNSLKPEDTAVYYCAADNWKTRSLVDYWGQGTEVTVSS,high polyreactivity
15,QVQLVESGGGLVQAGGSLRLSCAASGSIFRRNAMGWYRQAPGKERELVAGIRGSGGSTYYADSVKGRFTISRDNAKNTVYLQMNSLKPEDTAVYYSAARRSYYHGSYDYWGQGTQVTVSS,high polyreactivity
16,QVQLVESGGGLVQAGGSLRLSCAASGSIFRRYAKGWYRQAPGKERELVAAITNRGGTTYYADSVKGRFTISRDNAKNSVYLQMNSLKPEDTAVYYCNAYYRTKGGFRFGYWGQVTQVTVSS,high polyreactivity
17,QVQLVESGGGLVQAGGSLRLSCAASGSIFRRYAMGWYRQAPGKERELVAAISIGGGSTYYADSVKGRFTISRDNAKITVYLQMNSLKPEDTAVYYCNAYWKDDFEDGPGRRGMDYWGQGTQVTVSS,low polyreactivity
18,QVQLVESGGGLVQAGGSLRLSCAASGSIFRRYAMGWYRQAPGKERELVAAISWRGDSTYYADSVKGRFTISRDNAKNTVYLQMNSLKPEDTAVYYCNSLIGANPLCYAARYDYWGQGTQVTVSS,low polyreactivity
19,QVQLVESGGGLVQAGGSLRLSCAASGSIFRRYTMGWYRQAPGKEREFVAVISRDGGSTYYADSVKGRFTISRDNAKNTVYLQMNSLKPEDTAVYYCAARLVRRYDYDYWGQGTQVTVSS,high polyreactivity
20,QVQLVESGGGLVQAGGSLRLSCAASGSIFRSNDMGWYRKAPGKERELVARITSSVGSTYYADSVKGRFTISRDNAKNTVYLQMNSLKPEVTAVYYCAKRYYHYPYGYRDYDYWGQGTQVTVSS,low polyreactivity
